According to the supplement of paper PMC11908140:

B1: library; numbered along this chain (parent)
chain: MRKPRAAVGSGHRKQAASQEGRQKHAKNNSQAKPSACDGLARQPEEVVLQASVSSYHLFRDVAEVTAFRGSLLSWYDQEKRDLPWRRRAEDEMDLDRRAYAVWVSEVMLQQTQVATVINYYTGWMQKWPTLQDLASASLEEVNQLWAGLGYYSRGRRLQEGARKVVEELGGHMPRTAETLQQLLPGVGRYTAGAIASIAFGQATGVVDGNVARVLCRVRAIGADPSSTLVSQQLWGLAQQLVDPARPGDFNQAAMELGATVCTPQRPLCSQCPVESLCRARQRVEQEQLLASGSLSGSPDVEECAPNTGQCHLCLPPSEPWDQTLGVVNFPRKASRKPPREESSATCVLEQPGALGAQILLVQRPNSGLLAGLWEFPSVTWEPSEQLQRKALLQELQRWAGPLPATHLRHLGEVVHTFSHIKLTYQVYGLALEGQTPVTTVPPGARWLTQEEFHTAAVSTAMKKVFRVYQGQQPGTCMGSKRSQVSSPCSRKKPRMGQQVLDNFFRSHISTDAHSLNSAAQ

Variants of: B1
Assay: 8OG:A repair function score (normalized; synonymous = 0, nonsense = -1) (normalized log-likelihood score); higher = more repair activity (WT-like)
Details: with 8OG:A DNA repair reporter (GFP) in HEK-293 MUTYH KO cells
Outline: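 MUTYH knockout HEK-293 cells carrying lentiviral MUTYH cDNA NNN codon-scan libraries were grown with 10 pg/ml doxycycline and co-transfected with mCherry and a GFP reporter of 8OG:A repair. Viable mCherry+ cells were sorted at 72 h into GFP+ (repair) and GFP− bins, with three replicates per tile, and tile amplicons were sequenced. Rosace fitness scores for each tile were turned into a normalized repair function score anchored on the synonymous and nonsense distributions. Synonymous medians were set to 0 and nonsense medians to -1, and variants below 300 counts per million at the start were dropped.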

8OG:A repair function score: each site, then its substitutions
P365: G -0.137 | R -0.0845 | H -0.038 | K 0.177 | N 0.119 | E 0.196 | C 0.0287 | I 0.146 | Y -0.212 | S -0.116 | V 0.0242 | M -0.184 | T -0.334 | D 0.00966 | F -0.154 | W -0.0852 | L -0.0397 | A -0.0399 | Q -0.147
L373: F 0.16 | M -0.286 | I -0.315 | A -0.596 | V -0.504 | G -0.502 | C -0.611 | Y -0.225 | Q -0.26 | N -0.777 | H -0.452 | S -0.647 | P -1.03 | R -0.666 | E -0.788 | T -0.0654 | K -0.314 | W -0.229 | D -1.15
S378: L -0.171 | Y -0.26 | A -0.104 | K -0.24 | N 0.0818 | P -0.772 | G -0.248 | H -0.255 | V -0.2 | T 0.295 | I -0.143 | M -0.037 | R -0.122 | F -0.0771 | D -0.953 | W -0.346 | E -0.297 | Q 0.0825 | C 0.0237
G372: L -0.351 | T -0.157 | P -0.669 | E -0.387 | M -0.639 | Q -0.291 | S -0.15 | W -0.135 | K -0.479 | V -0.75 | R -0.304 | D -0.324 | N -0.294 | I -0.775 | F -0.294 | A -0.461 | C -0.263 | Y -0.393 | H -0.297
V379: C -0.214 | Q -0.792 | Y -0.744 | P -0.937 | K -0.667 | H -0.391 | S -0.0246 | N -0.658 | F -0.299 | E -0.777 | R -0.476 | W -0.453 | G -0.37 | T -0.0632 | I -0.327 | A 0.00194 | D -0.793 | L -0.463 | M -0.148
L369: S -0.169 | D -0.723 | G -0.359 | P 0.0626 | N 0.0162 | Q 0.0329 | W 0.187 | T 0.0329 | A 0.0443 | E -0.807 | Y 0.153 | C -0.0782 | V -0.297 | K -0.206 | H -0.345 | I -0.0978 | F 0.0478 | R 0.0308 | M 0.201
Q363: T -0.255 | H 0.0355 | M -0.284 | A -0.167 | C -0.306 | P -0.208 | R 0.0264 | I -0.184 | N -0.441 | G -0.38 | D -0.431 | L -0.242 | E -0.341 | F -0.479 | W -0.451 | S -0.169 | K -0.227 | V -0.293 | Y -0.408
N366: M -0.0331 | C -0.137 | L -0.0714 | S 0.0203 | K -0.0179 | G -0.066 | T -0.00609 | W -0.042 | Y 0.00766 | F -0.0908 | V -0.0917 | Q 0.152 | D -0.00541 | H 0.288 | E 0.176 | I -0.169 | P -0.104 | A 0.0425 | R -0.0785
R364: T -0.411 | K -0.245 | F -0.639 | W -1.11 | N -0.633 | H -0.405 | Q -0.529 | V -0.616 | M -0.577 | A -0.285 | E -0.504 | P -0.519 | G -0.353 | D -0.614 | S -0.2 | C -0.262 | I -0.878 | L -0.747 | Y -0.593
L370: T -0.332 | K -0.936 | Q -0.398 | C -0.0696 | G -0.609 | V -0.484 | F -0.461 | Y -0.258 | E -1.06 | M -0.659 | I -0.377 | S -0.406 | R -0.775 | N -0.379 | D -1 | W -0.364 | A -0.326 | P -0.657 | H -0.297
G368: V -0.27 | N -0.146 | I -0.7 | D -0.434 | R -0.193 | S -0.236 | Q -0.304 | E -0.692 | K -0.348 | M -0.799 | P -0.423 | W -0.913 | C -0.369 | T -0.332 | Y -0.663 | F -0.769 | A -0.292 | L -0.532 | H -0.275
W374: G -0.847 | Y -0.274 | H -0.924 | Q -0.828 | R -1.03 | K -0.692 | C -0.633 | T -1.02 | D -0.78 | V -0.874 | E -0.436 | P -1.01 | I -0.729 | M 0.217 | F -0.33 | L -0.36 | N -0.645 | A -1.1 | S -0.607
A371: I -0.776 | V -0.554 | E -0.577 | M -0.439 | G 0.0402 | P -0.216 | N -0.476 | D -0.824 | R -0.219 | F -0.605 | C -0.182 | Q -0.374 | K -0.182 | H -0.324 | S -0.172 | W -0.408 | Y -0.46 | L -0.5 | T -0.307
S367: R -0.201 | E 0.154 | M 0.226 | Q -0.113 | P -0.0154 | W 0.00054 | K 0.111 | F -0.13 | T 0.119 | V 0.0128 | L -0.139 | Y -0.204 | H -0.207 | D -0.0756 | N 0.179 | A -0.145 | I -0.335 | C -0.0437 | G -0.159
P377: Y -0.964 | T -0.573 | D -1.06 | G -1.26 | N -0.977 | I -0.348 | E -1.13 | V -0.171 | A -0.486 | K -1.11 | L -0.733 | W -1.42 | H -1.31 | C -0.633 | F -1.17 | S -0.809 | R -1.04 | M -1.07 | Q -0.969
F376: A -0.775 | M -0.13 | Q -1.35 | R -1.31 | V -0.809 | W -0.757 | I -0.775 | G -1.2 | D -0.964 | Y -0.715 | L -0.608 | T -0.441 | S -0.657 | N -1.17 | K -0.92 | E -1.28 | H -0.879 | P -1.02 | C -0.559
E375: P -0.897 | F -0.673 | N -0.407 | W -0.45 | I -0.715 | D -0.434 | C -0.342 | S -0.243 | A -0.313 | V -0.423 | Q 0.0245 | T -0.355 | Y -0.285 | R -0.462 | H -0.347 | M -0.229 | K -0.462 | G -0.0637 | L -0.83
V362: T -0.028 | K -0.0434 | L -0.0488 | S -0.406 | Y -0.434 | N -0.669 | Q -0.414 | P -0.881 | W -0.624 | M -0.403 | R -0.236
